The record followed here is publication PMC5803496, “The catalytic inactivation of the N-half of human hexokinase 2 and structural and biochemical characterization of its mitochondrial conformation” (Bioscience Reports, 2018).

This data set deals with the molecule itself. The data set can be described thus: crystal structure; sitting-drop vapor diffusion, 16% PEG 3350, 0.2 M sodium malonate, 0.1 M Bis-Tris propane pH 8.5, 10% ethylene glycol, 1 mM DTT, 18°C; in complex with glucose and G6P; the dimer is in the asymmetric unit.

B1: Δ16 variant of the wild-type human hexokinase 2 (enzyme, UniProt P52789 17-917, looked up)
chain: DQVQKVDQYLYHMRLSDETLLEISKRFRKEMEKGLGATTHPTAAVKMLPTFVRSTPDGTEHGEFLALDLGGTNFRVLWVKVTDNGLQKVEMENQIYAIPEDIMRGSGTQLFDHIAECLANFMDKLQIKDKKLPLGFTFSFPCHQTKLDESFLVSWTKGFKSSGVEGRDVVALIRKAIQRRGDFDIDIVAVVNDTVGTMMTCGYDDHNCEIGLIVGTGSNACYMEEMRHIDMVEGDEGRMCINMEWGAFGDDGSLNDIRTEFDQEIDMGSLNPGKQLFEKMISGMYMGELVRLILVKMAKEELLFGGKLSPELLNTGRFETKDISDIEGEKDGIRKAREVLMRLGLDPTQEDCVATHRICQIVSTRSASLCAATLAAVLQRIKENKGEERLRSTIGVDGSVYKKHPHFAKRLHKTVRRLVPGCDVRFLRSEDGSGKGAAMVTAVAYRLADQHRARQKTLEHLQLSHDQLLEVKRRMKVEMERGLSKETHASAPVKMLPTYVCATPDGTEKGDFLALDLGGTNFRVLLVRVRNGKWGGVEMHNKIYAIPQEVMHGTGDELFDHIVQCIADFLEYMGMKGVSLPLGFTFSFPCQQNSLDESILLKWTKGFKASGCEGEDVVTLLKEAIHRREEFDLDVVAVVNDTVGTMMTCGFEDPHCEVGLIVGTGSNACYMEEMRNVELVEGEEGRMCVNMEWGAFGDNGCLDDFRTEFDVAVDELSLNPGKQRFEKMISGMYLGEIVRNILIDFTKRGLLFRGRISERLKTRGIFETKFLSQIESDCLALLQVRAILQHLGLESTCDDSIIVKEVCTVVARRAAQLCGAGMAAVVDRIRENRGLDALKVTVGVDGTLYKLHPHFAKVMHETVKDLAPKCDVSFLQSEDGSGKGAALITAVACRIREAGQR
notes: wild type; Crystallised in complex with glucose and glucose-6-phosphate; also called Δ16-HK2; HK2; source: E. coli, Champion pET SUMO expression system, purified (nickel-chelating resin, Superdex 200)
Turning to B1, the binding result is on record as “binds”.
